In article PMC4975651 (Molecular cell, 2016):

Target: ZMYND8-PBP (93-426aa) (human)
Test: ITC

ARTKQTARKSTGGKA (monomethyl-lysine at K4; acetyl-lysine at K14) [H3K4me1K14ac peptide]
Kd: ~5.4 µM
